No end group written: not given here.
T1: purified His-tagged septin 7 (full length) (UniProt Q16181 1-437)
T1 sequence: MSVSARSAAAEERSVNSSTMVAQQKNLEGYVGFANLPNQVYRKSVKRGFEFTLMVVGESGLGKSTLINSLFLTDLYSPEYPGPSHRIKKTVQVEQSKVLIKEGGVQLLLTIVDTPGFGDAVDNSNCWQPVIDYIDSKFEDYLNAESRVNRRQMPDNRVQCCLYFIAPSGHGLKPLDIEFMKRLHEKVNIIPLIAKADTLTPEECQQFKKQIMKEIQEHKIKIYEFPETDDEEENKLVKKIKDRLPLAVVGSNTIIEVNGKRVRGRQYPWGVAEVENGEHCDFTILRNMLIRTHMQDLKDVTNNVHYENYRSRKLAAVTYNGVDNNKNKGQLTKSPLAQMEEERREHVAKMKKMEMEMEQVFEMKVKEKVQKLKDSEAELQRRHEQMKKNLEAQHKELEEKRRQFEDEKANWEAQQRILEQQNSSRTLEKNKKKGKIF

T2: SEPT7-ΔCC (septin 7 residues 1-331, lacking the coiled coil domain), His-tagged (UniProt Q16181 1-331)
T2 sequence: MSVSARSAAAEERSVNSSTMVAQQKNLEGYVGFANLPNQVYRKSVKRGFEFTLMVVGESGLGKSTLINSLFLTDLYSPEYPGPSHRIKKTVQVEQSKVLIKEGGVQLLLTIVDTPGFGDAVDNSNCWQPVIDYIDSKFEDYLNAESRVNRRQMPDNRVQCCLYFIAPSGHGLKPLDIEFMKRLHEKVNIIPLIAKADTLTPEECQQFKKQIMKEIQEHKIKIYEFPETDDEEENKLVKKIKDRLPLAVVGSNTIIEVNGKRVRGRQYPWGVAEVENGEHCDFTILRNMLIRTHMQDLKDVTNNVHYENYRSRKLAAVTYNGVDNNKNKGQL


What was measured:
[1] = biological target: T1, purified His-tagged septin 7 (full …); experiment: proteoliposome coflotation
[2] = biological target: T1, purified His-tagged septin 7 (full …); experiment: BLI
[3] = biological target: T2, SEPT7-ΔCC (septin 7 residues 1-331, …); experiment: BLI

Row | Binder | binding result [1] | binding result [2] | binding result [3]
1 | FIT2-Strep-His8-GFP fusion protein, reconstituted into proteoliposomes (natural protein) MEHLERCEWLLRGTLVRAAVRRYLPWALVASMLAGSLLKELSPLPESYLSNKRNVLNVYFVKVAWAWTFCLLLPFIALTNYHLTGKAGLVLRRLSTLLVGTAIWYICTSIFSNIEHYTGSCYQSPALEGVRKEHQSKQQCHQEGGFWHGFDISGHSFLLTFCALMIVEEMSVLHEVKTDRSHCLHTAITTLVVALGILTFIWVLMFLCTAVYFHNLSQKVFGTLFGLLSWYGTYGFWYPKAFSPGLPPQSCSLNLKQDSYKK | binds |  | 
2 | MEHLERCEWLLRGTLVRAAVRRY (also: biotinylated, site not given here) [biotinylated FIT2 N-terminal loop peptide (NTL, residues 1-23)] |  | binds | binds

Reference: PMC8056755 (The Journal of Cell Biology, 2021)
